# Results from IntAct's records for PubMed 15117939.
# B1: Mannan-binding lectin serine protease 2 (Homo sapiens), O00187-2 (parent)
# chain: MRLLTLLGLLCGSVATPLGPKWPEPVFGRLASPGFPGEYANDQERRWTLTAPPGYRLRLYFTHFDLELSHLCEYDFVKLSSGAKVLATLCGQESTDTERAPGKDTFYSLGSSLDITFRSDYSNEKPFTGFEAFYAAEDIDECQVAPGEAPTCDHHCHNHLGGFYCSCRAGYVLHRNKRTCSEQSL
# Tests used:
# mbl2_human MBL2, P11226 = variants of: B1; settings: with mbl2_human MBL2, P11226
# fcn2_human FCN2, Q15485 = variants of: B1; settings: with fcn2_human FCN2, Q15485
# Sequence of fcn2_human FCN2, Q15485 (Q15485 whole entry): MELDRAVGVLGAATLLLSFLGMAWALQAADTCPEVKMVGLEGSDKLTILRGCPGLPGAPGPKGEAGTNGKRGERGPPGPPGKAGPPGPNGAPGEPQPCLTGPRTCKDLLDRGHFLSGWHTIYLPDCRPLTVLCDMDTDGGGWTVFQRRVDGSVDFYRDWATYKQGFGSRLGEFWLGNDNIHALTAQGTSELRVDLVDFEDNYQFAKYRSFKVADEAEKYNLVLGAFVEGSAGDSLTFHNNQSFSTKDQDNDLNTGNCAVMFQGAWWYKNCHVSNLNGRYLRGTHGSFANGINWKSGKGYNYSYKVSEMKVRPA
# Sequence of mbl2_human MBL2, P11226 (P11226 whole entry): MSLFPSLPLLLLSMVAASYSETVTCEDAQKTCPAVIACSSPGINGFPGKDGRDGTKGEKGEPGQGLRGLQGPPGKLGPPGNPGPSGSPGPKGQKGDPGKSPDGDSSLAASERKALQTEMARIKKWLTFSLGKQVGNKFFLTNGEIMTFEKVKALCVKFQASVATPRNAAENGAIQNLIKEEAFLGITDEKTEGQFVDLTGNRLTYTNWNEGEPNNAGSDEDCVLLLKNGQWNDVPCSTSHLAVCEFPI
Variant,"effect of a mutation on the interaction (mbl2_human MBL2, P11226)","effect of a mutation on the interaction (fcn2_human FCN2, Q15485)"
MRLLTLLGLLCGSVATPLGPKWPEPVFGRLASPGFPGEYANDQERRWTLTAPPGYRLRLYFTHFDLELSHLCEYDFVKLSSGAKVLATLCGQQSTDTERAPGKDTFYSLGSSLDITFRSDYSNEKPFTGFEAFYAAEDIDECQVAPGEAPTCDHHCHNHLGGFYCSCRAGYVLHRNKRTCSEQSL,with no effect,with no effect
MRLLTLLGLLCGSVATPLGPKWPEPVFGRLASPGFPGEYANDQERRWTLTAPPGYRLRLYFTHFDLELSHLCEYDFVKLSSGAKVLATLCGQESTNTERAPGKDTFYSLGSSLDITFRSDYSNEKPFTGFEAFYAAEDIDECQVAPGEAPTCDHHCHNHLGGFYCSCRAGYVLHRNKRTCSEQSL,with no effect,with no effect
MRLLTLLGLLCGSVATPLGPKWPEPVFGRLASPGFPGEYANDQERRWTLTAPPGYRLRLYFTHFDLELSHLCEADFVKLSSGAKVLATLCGQESTDTERAPGKDTFYSLGSSLDITFRSDYSNEKPFTGFEAFYAAEDIDECQVAPGEAPTCDHHCHNHLGGFYCSCRAGYVLHRNKRTCSEQSL,disrupting interaction strength,disrupting interaction strength
MRLLTLLGLLCGSVATPLGPKWPEPVFGRLASPGFPGEYANDQERRWTLTAPPGYALRLYFTHFDLELSHLCEYDFVKLSSGAKVLATLCGQESTDTERAPGKDTFYSLGSSLDITFRSDYSNEKPFTGFEAFYAAEDIDECQVAPGEAPTCDHHCHNHLGGFYCSCRAGYVLHRNKRTCSEQSL,with no effect,with no effect
MRLLTLLGLLCGSVATPLGPKWPEPVFGRLASPGFPGEYANDQERRWTLTAPPGYRLRLYFTHFDLELSHLCAYDFVKLSSGAKVLATLCGQESTDTERAPGKDTFYSLGSSLDITFRSDYSNEKPFTGFEAFYAAEDIDECQVAPGEAPTCDHHCHNHLGGFYCSCRAGYVLHRNKRTCSEQSL,with no effect,with no effect
MRLLTLLGLLCGSVATPLGPKWPEPVFGRLASPGFPGEYANDQERRWTLTAPPGYRLRLYFTHFDLELSHLCEYAFVKLSSGAKVLATLCGQESTDTERAPGKDTFYSLGSSLDITFRSDYSNEKPFTGFEAFYAAEDIDECQVAPGEAPTCDHHCHNHLGGFYCSCRAGYVLHRNKRTCSEQSL,decreasing interaction strength,decreasing interaction strength
MRLLTLLGLLCGSVATPLGPKWPEPVFGRLASPGFPGEYANDQERRWTLTAPPGYRLRLYFTHFDLELSALCEYDFVKLSSGAKVLATLCGQESTDTERAPGKDTFYSLGSSLDITFRSDYSNEKPFTGFEAFYAAEDIDECQVAPGEAPTCDHHCHNHLGGFYCSCRAGYVLHRNKRTCSEQSL,with no effect,with no effect

# Now from value to variant:
"effect of a mutation on the interaction (mbl2_human MBL2, P11226)","effect of a mutation on the interaction (fcn2_human FCN2, Q15485)",Variant
disrupting interaction strength,disrupting interaction strength,MRLLTLLGLLCGSVATPLGPKWPEPVFGRLASPGFPGEYANDQERRWTLTAPPGYRLRLYFTHFDLELSHLCEYDFVKLSSGAKVLATLCGQESTDTERAPGKDTFYSLGSSLDITFRSGYSNEKPFTGFEAFYAAEDIDECQVAPGEAPTCDHHCHNHLGGFYCSCRAGYVLHRNKRTCSEQSL
decreasing interaction strength,decreasing interaction strength,MRLLTLLGLLCGSVATPLGPKWPEPVFGRLASPGFPGEYANDQERRWTLTAPPGYRLRLYFTHFDLELSHLCEYDFVKLSSGAKVLATLCGQESTDTERAPGKDTFYSLGSSLDITFRSDYSNEKPFTGFEAFYAAEDIDECQVAPGAAPTCDHHCHNHLGGFYCSCRAGYVLHRNKRTCSEQSL
decreasing interaction strength,with no effect,MRLLTLLGLLCGSVATPLGPKWPEPVFGRLASPGFPGEYANDQERRWTLTAPPGYRLRLYFTHFDLELSHLCEYDFVKLSSGAKVLATLCGQESTDTERAPGKDTFYSLGSSLDITFRSDYSNAKPFTGFEAFYAAEDIDECQVAPGEAPTCDHHCHNHLGGFYCSCRAGYVLHRNKRTCSEQSL
disrupting interaction strength,disrupting interaction strength,MRLLTLLGLLCGSVATPLGPKWPEPVFGRLASPGFPGEYANDQERRWTLTAPPGYRLRLYFTHFDLELSHLCEYDFVKLSSGAKVLATLCGQESTDTERAPGKDTFYSLGSSLDITFRSDASNEKPFTGFEAFYAAEDIDECQVAPGEAPTCDHHCHNHLGGFYCSCRAGYVLHRNKRTCSEQSL
decreasing interaction strength,decreasing interaction strength,MRLLTLLGLLCGSVATPLGPKWPEPVFGRLASPGFPGEYANDQERRWTLTAPPGYRLRLYFTHFDLELSHLCEYDFVKLSSGAKVLATLCGQESTDTARAPGKDTFYSLGSSLDITFRSDYSNEKPFTGFEAFYAAEDIDECQVAPGEAPTCDHHCHNHLGGFYCSCRAGYVLHRNKRTCSEQSL
